PMC9444072

Target: BK channel α subunit (hSloα1, human slow poke alpha subunit K+ channel) (human) (UniProt Q12791)
Assay: native gel or EMSA; native SMA-PAGE (4-16% Tris/glycine gradient gel, 150 V, 1 h, room temperature) of Ni-NTA purified SMALPs from HEK293 membranes, followed by western blot with anti-hsloα, anti-hsloβ or anti-his antibodies; subunits co-expressed in cells and extracted together

Sequence of BK channel α subunit (hSloα1, human slow poke alpha subunit K+ channel), Q12791 1-1236 (natural protein; other documents disagree on this pair) (Q12791 whole entry): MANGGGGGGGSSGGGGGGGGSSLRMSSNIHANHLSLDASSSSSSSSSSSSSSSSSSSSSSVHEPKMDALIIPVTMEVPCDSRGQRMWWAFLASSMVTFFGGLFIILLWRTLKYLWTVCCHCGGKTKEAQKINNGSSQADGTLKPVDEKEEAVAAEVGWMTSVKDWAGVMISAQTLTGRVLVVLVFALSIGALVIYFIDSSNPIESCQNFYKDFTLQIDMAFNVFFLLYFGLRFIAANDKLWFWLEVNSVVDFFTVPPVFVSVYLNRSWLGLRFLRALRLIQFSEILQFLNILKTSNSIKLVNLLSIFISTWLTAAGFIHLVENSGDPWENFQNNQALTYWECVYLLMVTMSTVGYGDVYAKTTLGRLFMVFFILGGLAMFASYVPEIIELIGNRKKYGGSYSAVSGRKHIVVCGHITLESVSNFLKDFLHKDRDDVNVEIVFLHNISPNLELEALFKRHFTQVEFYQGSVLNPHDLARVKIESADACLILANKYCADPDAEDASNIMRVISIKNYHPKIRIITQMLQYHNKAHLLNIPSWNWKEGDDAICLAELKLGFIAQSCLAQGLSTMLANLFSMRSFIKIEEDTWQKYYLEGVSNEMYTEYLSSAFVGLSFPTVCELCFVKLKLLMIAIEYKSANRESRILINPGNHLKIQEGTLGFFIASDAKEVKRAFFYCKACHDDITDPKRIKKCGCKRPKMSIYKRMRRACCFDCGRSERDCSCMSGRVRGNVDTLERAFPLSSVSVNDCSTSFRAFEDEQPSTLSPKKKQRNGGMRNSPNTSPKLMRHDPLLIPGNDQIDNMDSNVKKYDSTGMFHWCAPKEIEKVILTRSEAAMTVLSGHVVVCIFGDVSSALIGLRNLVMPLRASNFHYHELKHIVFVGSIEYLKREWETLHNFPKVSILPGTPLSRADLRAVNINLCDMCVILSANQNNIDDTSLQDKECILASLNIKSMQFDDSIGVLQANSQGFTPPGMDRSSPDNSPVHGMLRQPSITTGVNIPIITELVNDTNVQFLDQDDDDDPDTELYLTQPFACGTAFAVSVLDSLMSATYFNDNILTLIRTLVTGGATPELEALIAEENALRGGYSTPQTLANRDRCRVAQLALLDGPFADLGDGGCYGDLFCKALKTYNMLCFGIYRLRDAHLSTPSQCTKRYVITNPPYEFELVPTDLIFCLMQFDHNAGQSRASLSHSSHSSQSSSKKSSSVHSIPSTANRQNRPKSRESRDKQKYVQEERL

stoichiometry N: 4
Substance: BK channel α subunit (hSloα1, human slow poke alpha subunit K+ channel), Q12791 1-1236 (natural protein; other documents disagree on this pair)
